From paper PMC5678894 (Biochemistry, 2017)

B1: Full-length R67 dihydrofolate reductase (enzyme)
chain: MIRSSNEVSNPVAGNFVFPSNATFGMGDRVRKKSGAAWQGQIVGWYCTNLTPEGYAVESEAHPGSVQIYPVAALERIN
B2: Chymotrypsin-truncated R67 dihydrofolate reductase (domain or fragment)
chain: VFPSNATFGMGDRVRKKSGAAWQGQIVGWYCTNLTPEGYAVESEAHPGSVQIYPVAALERIN

Target: the molecule itself
Assay: small angle neutron scattering

Row | Protein | binding result
1 | B1 | binds
2 | B2 | binds
